Test: soluble on expression in E. coli; label from the status in PepcDB or PDB records

Row | Sequence | soluble on expression in E. coli
1 | MTNFIDRRLNSKNKSTVNRQRFLRRYKNQIKKSVSDAINQRGVTDIDSGESIVIPNRDLSEPTFHQGDGGVKDRVHPGNDQFSTGDRIPRPPKQQGQGGGQGDASDSGEGEDDFTFSISKEEYLNLLFEDLELPNLERNQLDKLIEYKTVRSGFCAEGVASNIDIVKSLQGSIARRIAMTASKRKQIKVLELELQALNNDKHDNIQRKRDLIAEIETLKNKISKVPFIDTFDLRFRNYAKQAVPTSKAVMFCLMDVSGSMDQATKEMAKRFYILLYLFLSRTYKNIDVVYIRHHTQAKEVDEHEFFYSQETGGTIASSALELMNDIITERYNDNQWNIYGAQASDGDNWADDSPRCQALLEQQILPKSRYFSYIEITQRAHQTLWKHYQQVEESHTNFAMQHIKSVADIYPVFRKFFKKNTKSAALEHHHHHH | soluble
2 | MGSDKIHHHHHHMNFKDCIDSYPFILMEGALGERLKREFDLDISGTVAMADLVYQQKGRLALETLWNEYIDIAYRYQLPFLATTPTRRANKERIYMAGYNESIIADNVDFLRSIKEAANVDMYIGGLMGCKGDAYTGEEALNLEEAIDFHSWQAGLFKSAKVDFLYAGIMPVLTEAIGMAVAMSDTDIPYIISFTIQRDGKLIDGHTIDDAIHCIDNHVSNKPVCYMTNCVHPDIVYEALSHKFNQTQTVKSRFWGIQANTSQLSYKELDGANHLHTSSAADLSEAILKLKSDCHLKIFGGCCGTDSSHMEKIAKISEVT | not soluble
3 | MWGKKDAGTELTNYQTLATNTIGMMKGVDGYAFTSGAKMTDTLIQAGAAKGMTVSGDPASGSATLWNSWGGQIVVAPDTAGGTGFNNGFTITTNKVPQSACVSISTGMSRSGGTSGIKINGNNHTDAKVTAEIASSECTADNGRTGTNTLVFNYNG | soluble
4 | SMKLKSNQTRTYDGDGYKKRAACLCFRNDTEQEVLLVSSSRHPDKWIVPGGGMEPEEEPNVAAAREVCEEAGVKGTLGRLVGIFENRDRKHRTYVYVLIVTEVLEDWEDSVNIGRKREWFKIDDAIQVLQCHKPVQASYFTALQEGCLNSNGTPLVATIGGGDLSPTYSINQSSVSDMR | soluble
5 | MKLKKIVFTLIALGLFSCKTTSVLVKNEPQLKTPKNVILLISDGAGLSQISSTFYFKSGTPNYTQFKNIGLIKTSSSREDVTDSASGATAFSCGIKTYNAAIGVADDSTAVKSIVEIAALNNIKTGVVATSSITDATPASFYAHALNRGLEEEIAMDMTESDLDFFAGGGLNYFTKRKDKKDVLAILKGNQFTINTTALTDFSSIASNRKMGFLLADEAMPTMEKGRGNFLSAATDLAIQFLSKDNSAFFIMSEGSQIDWGGHANNASYLISEINDFDDAIGTALAFAKKDGNTLVIVTSDHETGGFTLAAKKNKREDGSEYSDYTEIGPTFSTGGHSATLIPVFAYGPGSEEFIGIYENNEIFHKILKVTKWNQ | soluble
6 | MDSSFTPIEQMLKFRASRHEDFPYQEILLTRLCMHMQSKLLENRNKMLKAQGINETLFMALITLESQENHSIQPSELSCALGSSRTNATRIADELEKRGWIERRESDNDRRCLHLQLTEKGHEFLREVLPPQHNCLHQLWSALSTTEKDQLEQITRKLLSRLDQMEQDGVVLEAMS | not soluble
7 | MNDRYTNVKIGLEIHVQLSNAGSKLFCGCDSEYRGYKPNTNVCPVCLGLPGALPVPSRRPIVLAIAASMALGCRVPGTVVFTRKHYFYPDLPKNYQITQFEKAGGAPVCMGGVLEYLNTDSWRWERARIRRINLEEDPGKTYYEGSILTSRYALVDYNRSGVPLLEIVTEPDIPSPRHARMLIDYLLLTLEYIGATNPRLEGVFRVDANISIEGGERVEVKNIGSTQDVEKALKFEISRQRLIVERGGKVERETRHWDAERGMTKPLRLKEEEADYLYFPDPDLPPVEITEDMLAEAEKLASKTPGTIYREIESMGVRREIAWSITSTLPAARLFLEAVKLGADPRIAARLVGVDLKGELKEMGKDLYSPNNWPPPQSIAILSNLVARGDYTYDSIKGLVVPKLAANPGSDVKSLLPEKVKDIERLVEEVLNREKRAVQDYLAGKKKALNYLVGQVMRAAKGRALDPRQAREILLRRLSTVKEEDR | soluble
8 | MGSDKIHHHHHHMNWGKYATYSEDFFEKLTSESNQLDLYIFVQYLLHYQLSEAVDYCHQLGIALKGDIAIGIAHDSVDAWTHPELFHLDKQAGAPPDIFAVNGQNWGFPTYNWKKMAEDGYAWWKKRLTAMSNYFDAYRLDHILGFFRIWQMPEDSVRGLLGQFSPAIALSAEEIENSYGIPLRQWGLERFINPFIKDWVIDEIFGRDNRDWIIQTFLDYIGNGNYTFQNEYNNQKKVEKAQLEDWVREGLYKLHENIILLKDDENPEKYHPRISLIQTISFREFGDDYKGRLEKLYNDYFYGRNYEFWKEKAYEKLPVLKDATNMLACGEDLGMVPANVPDVMNHLNILRLIIERMPSDNRFVSPLNEVPYLSVLTTSSHDTSPLRAWWEENHEEIQRYYNEVMGWYGEAPYYASAEIIQEIVKRHLNSNAMMVILPIQDWLAMSEQLRKEDAKSEQINIPANPYHYWNYRLHCQLETLIDNQDWTEFLKKFIKESKRAY | not soluble
9 | MYKYFDAHCHYSYLKKKYEGYLIAAVSMDYQSAMDTFSLKSDNVLVGVGIHPWRVHEEDLTRILSLIIKADFVGEVGLDYRFAKAPKELQIKYFEEQIKAGEGKLINVHALDAWKDAFNILVKNDVKSAIFHWYTGPINLLKDIESAGYFISINPSVSFQKKHQEVLKNVDLKNVLTESDGGYEYRGKLLEPSDIPNAISFMSNFLGIEEYKLVRIISNNFFKAYGVNPVNN | not soluble
10 | MKQPFTQAIENAELAIRNADERNDIFSELLEGLGVGPVAGEVLLGGLNASPKLMQHAEQELIEEVQRRRQQQHQLQGVQGKRRKRPTMMRGMVILEHHHHHH | not soluble
11 | MGSDKIHHHHHHMKDILVIGATGKQGNAVVKQLLEDGWYVSALTRNKNNRKLSDIGHPHLSIVEGDLSDNVSLQSAMKGKYGLYSIQPIVKDDVSEELRQGMKIIEIAEQENIQHIVYSTAGGVNRNRTGPHFEVLAKIENRLMESNINATVIKPSFFMDNFLRIAKVEDERITLPEFINPNIKFTMISSIDIAKIASYIFAHPQSFTHQSIEIGSDEVTLSEAATIFSEVTGKSTVIEGEFVSGVAEKQWLEEKGYEVDFELMAEINPTRLSLSDWLKVQNYNK | not soluble
12 | GPGSMLNTAFSTADGRRLPRDLTDQQKRDIEEAFRVLDVKGVSTITPNDLKVALRALGYEPDKDAVRKLVAEMDRGGVSSNLVLSEFEDVMRQRFFAEDKDDEVDLAFPLFTEGKSEFISLDDLKRVAAEVGEDIPEDVLQEIIRECDVLDRDGRISREEFNKMLKSDK | soluble
13 | MKVLEERNAFLSDYEVLKFLTDLEKKHLWDQKSLAALKKSRSKGKQNRPYNHPELQGITRNVVNYLSINKNFINQEDEGEERESSGAKDAEKSGISKMSDESFAELMTKLNSFKLFKAEKLQIVNQLPANMVHLYSIVEECDARFDEKTIEEMLEIISAYA | soluble
14 | MGVEKTIVGIAGKIAAGKTTVAKFLEELGFCRISCSEPLLDILTGNVSEYSWVPEVNFKGEPTRENLIELGRLLKEKYGEDILIRLAIDKLRRCKNIAIDGVRSLGEVEAIKRMGGIIIYIEARAEVRFERLRKRCSEKDRGIKTLQDLLRFDEWEERLYSTTNIKEKADFVILNEGSLEELKKKVREILREHSN | not soluble
15 | MNIWGPHIVQARRAVAIFCRGLLVLMPALSLLGLTAEAEPRSADDRQRIAAVTAPATGFTVAEPFEQLPGGAATVSGDLGRDAFSRPSANMSFERELDFHLGQALFDKLWVASPSSTKASDGLGPLYNARSCQACHIRDGRGQVSGGPGLVLRIGRVRGDGVLPDPLFGLQIQDSAVPGLRPEARIAVSQAETEVTLNGGEVAVLRKPRYRLDAAEGTLHAESTLSPRLAPQMIGLGLLEAIPEAEILARADPDDRDGDGISGRPNRVHDPETGQEALGRFGWKAGAASVLDQTAAAFASDIGISSPLRPAPWGDCTELQVECRAALHGDGDPRGAEIDGPALALTAFYSRNLAVPARRDVDDPDVLRGKRVFYGIGCPACHVPKHVTAQLSDQPEQSFQLIWPYTDLLLHDMGAGLADELPQGLASGREWRTAPLWGIGLTEQVSGQARFLHDGRARTLLEAVLWHGGEAAAQRDRVIALAPEDRAALIRFLESL | not soluble
16 | NGAQAFVSAQTSTIPKTAFTAHDFVDYTLPQEQKGKEQKEQQWMKNSQTKDTDVHPYADFAVLEILLFPDSSTDRKIFNHFIQPAIRAYKQLGDSLNIFANQTLDQPKHNRYYLLGYPFLRNKAASLFLNQTEQR | soluble
17 | MNNSAFTFQTLHPDTIMDALFKQGIRVDSGLTPLNSYENRVYQFQDEERRRFVVKFYRPERWTADQILEEHQFALQLVNDEVPVAAPVAFNGQTLLNHQGFYFAVFPSVGGRQFEADNIDQMEAVGRYLGRMHQTGRKQLFIHRPTIGLNEYLIEPRKLFEDATLIPSGLKAAFLKATDELIAAVTAHWREDFTVLRLHGDCHAGNILWRDGPMFVDLDDARNGPAIQDLWMLLNGDKAQQRMQLETIIEAYEEFSEFDTAEIGLIEPLRAMRLVYYLAWLMRHWADPAFPKNFPWLTGEDYWLRQTATFIEQAKVLQEPPLQLTPMY | not soluble
18 | GHMNAYLSDQPVRLSPLRDEQGNQPRFGLLLEPGRPGMHVGELPAQWLKGLARSHHLLLLRGFAAFADAESLTRYCHDFGEVMLWPFGAVLELVEQEGAEDHIFANNYVPLHWDGMYLETVPEFQVFHCVDAPGDSDGGRTTFSSTPAALQLADSSELELWRRASGRYQRSAAHYSSRSAAPIVERHPRREFPILRFCEPPVEGDASFINPSEFHYDGIAPEQRGELLASLRRCLYHPQAHYAHRWRSDDLVIADNLTLLHGREAFAHRAPRHLRRVHIHAEPALRNPHLQRD | soluble
